Source: patent US20240165153A1

How the values were obtained:
CD19 = CD19 (UniProt P15391); experiment: cell-based or functional assay
CD20 = CD20 (UniProt P11836); experiment: cell-based or functional assay
Chain of UniProt P11836 (P11836 whole entry): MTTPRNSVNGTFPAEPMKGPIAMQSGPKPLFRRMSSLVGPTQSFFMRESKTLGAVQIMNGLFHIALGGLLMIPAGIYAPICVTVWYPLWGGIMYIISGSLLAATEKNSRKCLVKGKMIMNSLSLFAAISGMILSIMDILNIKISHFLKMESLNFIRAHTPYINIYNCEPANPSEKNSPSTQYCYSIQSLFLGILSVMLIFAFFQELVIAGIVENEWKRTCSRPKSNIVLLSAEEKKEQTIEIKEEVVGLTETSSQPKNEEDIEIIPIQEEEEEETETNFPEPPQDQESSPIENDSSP

Chain of UniProt P15391 (P15391 20-556 limits assumed): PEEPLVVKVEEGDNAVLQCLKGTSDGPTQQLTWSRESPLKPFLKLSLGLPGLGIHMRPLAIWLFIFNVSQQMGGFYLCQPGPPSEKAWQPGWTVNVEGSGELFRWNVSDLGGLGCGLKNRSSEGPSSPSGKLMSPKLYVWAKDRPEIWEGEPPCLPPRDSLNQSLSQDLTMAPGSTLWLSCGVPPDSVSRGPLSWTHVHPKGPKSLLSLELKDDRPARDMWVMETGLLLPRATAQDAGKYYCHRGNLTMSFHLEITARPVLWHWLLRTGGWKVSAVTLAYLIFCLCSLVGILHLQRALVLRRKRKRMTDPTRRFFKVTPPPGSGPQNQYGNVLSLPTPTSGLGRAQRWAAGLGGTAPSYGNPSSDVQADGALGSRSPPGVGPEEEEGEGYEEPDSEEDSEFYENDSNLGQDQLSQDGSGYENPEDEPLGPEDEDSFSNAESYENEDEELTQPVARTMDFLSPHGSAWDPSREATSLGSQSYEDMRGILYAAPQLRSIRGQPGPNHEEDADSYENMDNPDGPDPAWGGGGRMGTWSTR

## 10-5-2020 Hu19-CD828Z (anti-CD19 chimeric antigen receptor)
CD19
  CFSE median fluorescence intensity (lower = more proliferation), FIG. 9B, CD4+ T cells with Hu1928-Hu20BB long 10-21-2020, 4 days with CD19-K562 (NGFR-K562 control 28478) (relative fluorescence units): 1410
  CFSE median fluorescence intensity (lower = more proliferation), FIG. 10B, CD8+ T cells with Hu1928-Hu20BB long 10-21-2020, 4 days with CD19-K562 (NGFR-K562 control 24978) (relative fluorescence units): 1770
  IFNγ ELISA of supernatant; T cells transduced with Hu1928-Hu20BB long 10-21-2020, overnight with CD19-K562: 8210 pg/mL
  IFNγ release; T cells transduced with Hu1928-Hu20BB long 10-21-2020, with CD19-K562: 37500
  IFNγ release; T cells transduced with monospecific 10-5-2020 Hu19-CD828Z, with CD19-K562 (untransduced T cells: 217.2): 22000
  IFNγ release; T cells transduced with monospecific 10-5-2020 Hu19-CD828Z, with ST486, which expresses CD19 (weakly) and CD20 (untransduced T cells: 1674.8): 2070
  IFNγ release; T cells transduced with monospecific 10-5-2020 Hu19-CD828Z, with Toledo, which expresses CD19 and CD20 (untransduced T cells: 542.3): 3200
  IL-2 ELISA of supernatant; T cells transduced with Hu1928-Hu20BB long 10-21-2020, overnight with CD19-K562: 496 pg/mL
CD20
  IFNγ release; T cells transduced with monospecific 10-5-2020 Hu19-CD828Z, with CD19-negative CD20-K562 (untransduced T cells: 201.3): 291
  IFNγ release; T cells transduced with monospecific 10-5-2020 Hu19-CD828Z, with ST486 CD19-negative (untransduced T cells: 1464.3): 1360
  IFNγ release; T cells transduced with monospecific 10-5-2020 Hu19-CD828Z, with Toledo CD19-negative (untransduced T cells: 372.7): 702
